Measured values from WO2005092925A2.

Tests used:
Experiment in all cases: AlphaScreen
[1] = target: human FcRn (human) (UniProt P55899)
[2] = target: human FcγRI (human) (UniProt P12314)
[3] = target: human FcγRIIc (human) (UniProt P31995)
[4] = target: human FcγRIIb (human) (UniProt P31994)
[5] = target: human V158 FcγRIIIa, extracellular region fused with GST (human) (UniProt P08637)
[6] = target: human FcγRIIa H131 (human) (UniProt P12318)
UniProt P12318, sequence (P12318 36-218 limits assumed): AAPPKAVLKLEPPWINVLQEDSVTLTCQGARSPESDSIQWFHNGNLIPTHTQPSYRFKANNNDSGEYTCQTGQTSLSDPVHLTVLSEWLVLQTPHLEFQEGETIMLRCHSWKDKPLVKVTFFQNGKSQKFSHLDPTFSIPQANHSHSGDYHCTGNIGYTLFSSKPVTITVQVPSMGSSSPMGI

UniProt P31994, sequence (P31994 43-217 limits assumed): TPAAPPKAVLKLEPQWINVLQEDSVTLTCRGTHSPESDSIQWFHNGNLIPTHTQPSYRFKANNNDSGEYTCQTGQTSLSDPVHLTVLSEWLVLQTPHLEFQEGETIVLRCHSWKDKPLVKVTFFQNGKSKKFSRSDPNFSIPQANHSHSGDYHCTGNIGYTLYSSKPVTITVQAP
UniProt P31995, sequence (P31995 43-217 limits assumed): as the sequence (P31994 43-217 limits assumed) above
UniProt P12314, sequence (P12314 16-288 limits assumed): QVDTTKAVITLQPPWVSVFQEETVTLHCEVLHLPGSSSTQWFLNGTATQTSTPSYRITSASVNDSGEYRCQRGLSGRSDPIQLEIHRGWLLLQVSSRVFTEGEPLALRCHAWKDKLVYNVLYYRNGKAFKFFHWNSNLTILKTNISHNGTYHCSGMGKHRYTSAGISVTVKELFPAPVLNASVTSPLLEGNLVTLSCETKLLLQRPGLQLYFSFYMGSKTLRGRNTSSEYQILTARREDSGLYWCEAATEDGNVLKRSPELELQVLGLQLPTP
UniProt P55899, sequence (P55899 24-297 limits assumed): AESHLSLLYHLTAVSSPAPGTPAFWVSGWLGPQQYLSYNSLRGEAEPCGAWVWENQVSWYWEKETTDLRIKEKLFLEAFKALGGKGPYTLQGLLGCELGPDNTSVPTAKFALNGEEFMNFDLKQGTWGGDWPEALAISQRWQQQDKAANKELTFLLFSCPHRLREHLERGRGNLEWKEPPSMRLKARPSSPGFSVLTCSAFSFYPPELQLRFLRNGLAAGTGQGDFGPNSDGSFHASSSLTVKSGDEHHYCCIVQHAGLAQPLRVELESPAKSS
UniProt P08637, sequence (P08637 17-208 F176V): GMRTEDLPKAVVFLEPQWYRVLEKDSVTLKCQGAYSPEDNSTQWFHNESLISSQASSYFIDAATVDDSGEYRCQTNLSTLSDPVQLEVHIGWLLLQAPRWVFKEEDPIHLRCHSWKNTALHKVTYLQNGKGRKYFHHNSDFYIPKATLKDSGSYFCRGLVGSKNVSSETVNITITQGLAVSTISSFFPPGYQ

Row | Substance | Fold WT [1] | Fold WT [2] | Fold WT [3] | Fold WT [4] | Fold WT [5] | Fold WT [6]
1 | Campath A231K (antibody) | 0.52 fold | 0.5 fold | 0.58 fold | 0.41 fold | 0.58 fold | 0.62 fold
2 | Campath D221K (antibody) | 5.66 fold | 4.53 fold | 17.8 fold | 3.5 fold | 65.6 fold | 4.32 fold
3 | Campath E233A (antibody) | 0.93 fold | 0.1 fold | 0.71 fold | 0.6 fold | 0.46 fold | 1.23 fold
4 | Campath E233F (antibody) | 0.9 fold | 0.23 fold | 0.84 fold | 0.73 fold | 0.58 fold | 0.64 fold
5 | Campath E233G (antibody) | 2.09 fold | 0.36 fold | 0.74 fold | 0.94 fold | 1.21 fold | 1.21 fold
6 | Campath E233H (antibody) | 0.99 fold | 0.17 fold | 0.78 fold | 0.58 fold | 0.32 fold | 0.74 fold
7 | Campath E233I (antibody) | 0.95 fold | 0.3 fold | 1.8 fold | 1.69 fold | 0.88 fold | 1.09 fold
8 | Campath E233L (antibody) | 0.6 fold | 0.53 fold | 0.54 fold | 0.26 fold | 0.52 fold | 0.55 fold
9 | Campath E233M (antibody) | 1.13 fold | 0.29 fold | 0.85 fold | 0.49 fold | 0.7 fold | 0.67 fold
10 | Campath E233N (antibody) | 0.74 fold | 0.16 fold | 0.46 fold | 0.34 fold | 0.48 fold | 0.5 fold
11 | Campath E233Q (antibody) | 0.61 fold | 0.19 fold | 0.39 fold | 0.27 fold | 0.51 fold | 0.52 fold
12 | Campath E233R (antibody) | 1.05 fold | 0.14 fold | 0.6 fold | 0.36 fold | 0.35 fold | 0.75 fold
13 | Campath E233S (antibody) | 1.1 fold | 0.17 fold | 0.37 fold | 0.31 fold | 0.36 fold | 0.62 fold
14 | Campath E233T (antibody) | 1.19 fold | 0.15 fold | 0.83 fold | 0.78 fold | 0.42 fold | 1.28 fold
15 | Campath E233V (antibody) | 0.91 fold | 0.25 fold | 0.61 fold | 0.37 fold | 0.5 fold | 0.71 fold
16 | Campath E233W (antibody) | 1.64 fold | 0.28 fold | 0.7 fold | 0.82 fold | 0.35 fold | 0.86 fold
17 | Campath G236A (antibody) | 1.75 fold | 0.48 fold | 1.45 fold | 1.05 fold | 0.65 fold | 45 fold
18 | Campath G236D (antibody) | 1.53 fold | 0.15 fold | 4.74 fold | 3.77 fold |  | 5.01 fold
19 | Campath G236M (antibody) | 1.6 fold |  | 0.4 fold | 0.79 fold | 0.19 fold | 0.34 fold
20 | Campath G236P (antibody) | 1.41 fold | 0.15 fold | 0.15 fold | 0.24 fold | 0.1 fold | 0.11 fold
21 | Campath G236S (antibody) | 1.77 fold | 0.55 fold | 3.68 fold | 2.77 fold | 5.77 fold | 22.7 fold
22 | Campath G236T (antibody) | 1.56 fold |  | 0.48 fold | 0.95 fold |  | 1.89 fold
23 | Campath G236V (antibody) | 1.35 fold | 0.14 fold | 0.47 fold | 0.82 fold | 0.27 fold | 1.52 fold
24 | Campath G236W (antibody) | 1.52 fold | 0.78 fold | 0.29 fold | 0.7 fold | 0.29 fold | 2.13 fold

Row | Substance | Fold WT [1] | Fold WT [2] | Fold WT [3] | Fold WT [4] | Fold WT [5] | Fold WT [6]
25 | Campath K222E (antibody) | 0.64 fold | 1.77 fold | 1.22 fold | 1.04 fold | 1.51 fold | 1.26 fold
26 | Campath K222Y (antibody) | 0.66 fold | 0.77 fold | 0.34 fold | 0.5 fold | 0.34 fold | 0.48 fold
27 | Campath L234A (antibody) | 0.58 fold | 0.44 fold | 0.62 fold | 0.85 fold | 0.35 fold | 0.8 fold
28 | Campath L234G (antibody) | 2.54 fold | 0.7 fold | 3.48 fold | 3.62 fold | 2.17 fold | 3.26 fold
29 | Campath L234K (antibody) | 0.62 fold | 0.43 fold | 1.09 fold | 1.42 fold | 0.53 fold | 0.65 fold
30 | Campath L234M (antibody) | 0.55 fold | 0.64 fold | 0.65 fold | 0.9 fold | 0.49 fold | 0.89 fold
31 | Campath L234R (antibody) | 1.19 fold | 0.38 fold | 1.52 fold | 1.49 fold | 0.73 fold | 0.87 fold
32 | Campath L235A (antibody) | 0.97 fold | 0.34 fold | 0.78 fold | 0.84 fold | 0.41 fold | 0.62 fold
33 | Campath L235E (antibody) | 0.78 fold | 0.34 fold | 0.8 fold | 0.83 fold | 1.06 fold | 0.63 fold
34 | Campath L235K (antibody) | 0.96 fold | 0.42 fold | 1.34 fold | 1.28 fold | 0.63 fold | 0.56 fold
35 | Campath L235M (antibody) | 0.69 fold | 0.38 fold | 0.64 fold | 0.89 fold | 0.46 fold | 0.79 fold
36 | Campath L235P (antibody) | 0.86 fold | 0.13 fold | 0.89 fold | 1.16 fold | 0.78 fold | 1.16 fold
37 | Campath L235R (antibody) | 0.53 fold | 0.35 fold | 1.15 fold | 1.93 fold | 0.62 fold | 0.71 fold
38 | Campath L235W (antibody) | 0.46 fold | 0.11 fold | 0.5 fold | 0.77 fold | 0.32 fold | 0.9 fold
39 | Campath P228G (antibody) | 1.77 fold | 1 fold | 0.54 fold | 0.96 fold | 0.98 fold | 2.6 fold
40 | Campath P228K (antibody) | 1.55 fold | 1.91 fold | 1.13 fold | 1.14 fold | 1.28 fold | 1.31 fold
41 | Campath P228Y (antibody) | 1.45 fold | 1.15 fold | 1.61 fold | 1.59 fold | 0.75 fold | 1.68 fold
42 | Campath P230E (antibody) | 1.01 fold | 2.07 fold | 1.47 fold | 2.34 fold |  | 1.25 fold
43 | Campath P230G (antibody) | 1.16 fold | 1.04 fold | 0.75 fold | 1.13 fold | 0.48 fold | 0.99 fold
44 | Campath P230Y (antibody) | 0.65 fold | 0.44 fold | 1.22 fold | 0.85 fold | 0.56 fold | 0.4 fold
45 | Campath P232E (antibody) | 0.76 fold | 2.97 fold | 0.99 fold | 1.59 fold | 1.51 fold | 0.8 fold
46 | Campath P232K (antibody) | 1.56 fold | 0.7 fold | 0.61 fold | 0.85 fold | 0.77 fold | 0.87 fold
47 | Campath P232Y (antibody) | 0.68 fold | 1.91 fold | 0.96 fold | 1.49 fold | 0.99 fold | 1.51 fold
